This is an account of results in the Immune Epitope Database (IEDB).

The first assay concerns the target HLA-A*02:01. The experiment in a line: IEDB peptide-MHC binding, purified MHC/competitive/radioactivity; ≥ and ≤ were set here for values at or beyond the usual limits of such assays. The following applies: source organism: Mammarenavirus brazilense.
The term IC50 denotes the concentration needed to halve the response being measured. Regarding TLFFTTTLFL, the IC50 worked out at 423 nM.
In the case of TLVDICFWST, the concentration for half-maximal inhibition (IC50) was 13 nM.

Still in this assay, the particulars now being: source organism: Mammarenavirus choriomeningitidis.
With YIACRTSIV, the IC50 amounted to 46 nM.
Turning to YLISIFLHLV, the IC50 is 5.8 nM.

The assay is the same for the next values; noted with them: source organism: Mammarenavirus machupoense.
Take TMNSVVQAL: the IC50 was 1250 nM.
As for VLSYVIGLL, the IC50 was found to be 210 nM.

The assay is the same for the next values; noted with them: source organism: Mammarenavirus whitewaterense.
TLKSFFAWSL: the half-inhibitory concentration (IC50) amounted to 1340 nM.

The same assay, now with this note: source organism: Vaccinia virus WR.
Consider SMMNRDKIPI, for which the IC50 was determined as 1360 nM.
Take SMPASHNNLA: the half-maximal inhibitory concentration (IC50) was 1910 nM.
As for SMSSYDFST, the IC50 is 0.34 nM.
Turning to SMTENVEEDL, the IC50 worked out at 755 nM.
As to SMVISLLSMI, the IC50 amounted to 79 nM.
As to SQEVRKYFCV, the IC50 turned out to be 1200 nM.
Same read-out and setting: then SQMTSTFIM, with 85 nM; and SQSERDNYI, with 1190 nM; and SQYANCSSI, with 81 nM.
For the sequence SQYYFSMLV, the IC50 was 13 nM.
Same read-out and setting: then STAVNEEWL, with 4690 nM; and STEERHIFL, with 2250 nM.
For the sequence STFIMLEGET, the half-maximal inhibitory concentration (IC50) turned out to be 3480 nM.
STIATYIDAL: the IC50 is 2780 nM.
For STIDGRIVTL, the half-inhibitory concentration (IC50) was found to be 736 nM.
On the same count and under the same terms, then STLIVTIYV, with 677 nM.
As for STYWVIPWEL, the 50% inhibitory concentration (IC50) came out at 76 nM.
For SVCNSLSQI, the IC50 came out at 1510 nM.
For SVEKIADDRI, the IC50 turned out to be 3830 nM.
Regarding SVNIWAIIPL, the IC50 was found to be 1120 nM.
Consider SVSESNIDL, for which the IC50 turned out to be 569 nM.
SVVIYDFLV: the 50% inhibitory concentration (IC50) amounted to 1.1 nM.
For the sequence SVVVPIKFI, the IC50 was 2960 nM.
For the sequence SVVVPIKFIA, the half-maximal inhibitory concentration (IC50) is 4060 nM.
For TAIFTDASTV, the IC50 worked out at 4460 nM.
For the sequence TAKSSFVCGI, the 50% inhibitory concentration (IC50) was found to be 1130 nM.
Regarding TAYEINNEL, the concentration for half-maximal inhibition (IC50) was found to be 925 nM.
For the sequence TIATYIDAL, the half-maximal inhibitory concentration (IC50) was 610 nM.
For the sequence TIATYIDALA, the IC50 turned out to be 125 nM.
With TIDFKLKYFL, the half-inhibitory concentration (IC50) is 3030 nM.
With TIDGRIVTL, the IC50 came to 2170 nM.
For TIDQTANVV, the IC50 is 549 nM.
With TIGNQLYLTV, the IC50 came out at 18 nM.
On the same count and under the same terms, then TIIALLFAL, with 12 nM.
Same read-out and setting: to TIIFVLISI belongs 1180 nM; to TIMGVIFLI, 9.6 nM.
As for TINCDVGYEV, the half-maximal inhibitory concentration (IC50) is 385 nM.
Turning to TINNLKMML, the IC50 was found to be 193 nM.
For TISVVTLLCV, the IC50 turned out to be 3420 nM.
With TLAPFNFLV, the 50% inhibitory concentration (IC50) stood at 0.22 nM.
TLDNILGIL: the IC50 was found to be 67 nM.
Turning to TLDTAIFTDA, the IC50 amounted to 50 nM.
Turning to TLFDDELYSI, the IC50 was found to be 1.1 nM.
As for TLFLILCYFI, the 50% inhibitory concentration (IC50) is 21 nM.
The same measure, in the same setting: to TLFLLFLEI belongs 56 nM.
Consider TLIDDPDNNL, for which the half-maximal inhibitory concentration (IC50) worked out at 781 nM.
TLLCVLPAV: the IC50 amounted to 1 nM.
Consider TLLCVLPAVV, for which the IC50 was determined as 2.5 nM.
Consider TLRHIIGLLM, for which the IC50 worked out at 748 nM.
Consider TLSRHIFMA, for which the concentration for half-maximal inhibition (IC50) came out at 6.2 nM.
On to TLTNVVNIST, for which the IC50 turned out to be 1240 nM.
As to TLVAIFSYI, the IC50 worked out at 863 nM.
TLWAIINTI: the 50% inhibitory concentration (IC50) was 9.4 nM.
With TLYDFDYYI, the IC50 worked out at 0.18 nM.
As to TLYDFDYYII, the IC50 turned out to be 5.8 nM.
TMFKIVYSL: the IC50 came out at 9.3 nM.
With TMLMFIFTGI, the IC50 is 0.89 nM.
As for TMLSIILVI, the half-maximal inhibitory concentration (IC50) was 1.4 nM.
As to TMLSIILVII, the IC50 is 154 nM.
TMSAFLIVRL: the concentration for half-maximal inhibition (IC50) turned out to be 448 nM.
With TMVDKPTEL, the IC50 worked out at 185 nM.
On the same count and under the same terms, to TTLSRHIFMA belongs 399 nM.
Same read-out and setting: then TTTSEVVDML, with 2520 nM; and TVASAQIHL, with 3130 nM; and TVIHLEWLL, with 5.6 nM.
Still for that read-out and setting: then TVMNNLSEL, with 533 nM; and TVMVKINPTL, with 114 nM; and TVSDYISEL, with 128 nM.
Turning to TVTNKEGVKI, the half-maximal inhibitory concentration (IC50) came out at 2880 nM.
VIDEILFKV: the IC50 came out at 1.3 nM.
As to VIFLISVIVL, the half-maximal inhibitory concentration (IC50) came to 1540 nM.
As to VIGLCIRISM, the half-maximal inhibitory concentration (IC50) worked out at 735 nM.
For the sequence VIHDYICWL, the IC50 worked out at 12 nM.
On the same count and under the same terms, to VILFIMFMLI belongs 384 nM; to VILSPPINA, 872 nM.
As to VIVIYIFTV, the IC50 is 104 nM.
The same measure, in the same setting: then VLAIDFGNGA, with 1440 nM.
As for VLDATNDGLI, the IC50 was found to be 369 nM.
VLDTTLYAV: the IC50 came to 0.6 nM.
Consider VLEYIYGGKT, for which the IC50 is 1440 nM.
Regarding VLGKVTINNL, the IC50 amounted to 1770 nM.
Consider VLITMLSIIL, for which the half-maximal inhibitory concentration (IC50) turned out to be 124 nM.
Turning to VLITWLIDYV, the IC50 is 0.8 nM.
As for VLLDYGLHGL, the IC50 amounted to 1.3 nM.
VLLTYFCFV: the 50% inhibitory concentration (IC50) is 0.28 nM.
Turning to VLMEAQQGI, the 50% inhibitory concentration (IC50) is 7.1 nM.
VLNIVLFIL: the 50% inhibitory concentration (IC50) stood at 393 nM.
Take VLPAVVYST: the IC50 was determined as 113 nM.
Still for that read-out and setting: then VLPNKVRIFI, with 1310 nM.
For the sequence VLSNTSTAV, the IC50 is 16 nM.
